Reference: US20230287145A1 (Hoffmann-La Roche, published 2023)
Substitutions are numbered along the chain they refer to. Names may count otherwise. One block for each binder: values may come before it.

Assays:
[1] = target: T1, biotinylated anti-human CD3 IgG (anti-CD3 P035.093) (biotinylated (site not stated)); test: SPR; biotinylated anti-CD3 P035.093 IgG on CAP chip, anti-idiotypic IgG at 1 µg/ml; response normalised to anti-human IgG surface and to the unstressed sample; after 14 d at 40 °C pH 6.0
T1 construct: IgG format of this reagent is not described further; immobilised on a CAP chip; also called CD3 IgG (P035.093)
Procedure: (§1) Flow cell 1 was kept as mock surface. […] Dissociation was monitored for 30 s, the flow rate was set to 5 μl/min. The CAP chip was regenerated by injecting a mix of NaOH and Guadinium-hydrochloride for 120 s, provided in the biotin capture kit. Bulk refractive index differences were corrected by subtracting the response obtained from flow cell 1 (mock surface).

[2] = target: T2, FOLR1 CD3 TCB P035.093; test: SPR, Biacore T200, 37 °C; FOLR1 CD3 TCB P035.093 captured on FOLR1-Fc (C1 chip), anti-idiotypic antibody 1.2-100 nM as analyte; 1:1 Langmuir fit; n=5; Stdev 0.5 nM
T2 construct: Classical 2+1 TCB, knob-into-hole, PGLALA; the common light chain pairs with each of the Fabs; also called FOLR1 TCB CD3: P035.093
Procedure: (§2) Briefly, FOLR1-Fc was immobilized on a series s sensor chip C1 using standard amine coupling chemistry according to the manufacturer's instructions. […] The first flow cell was kept as mock surface. […] Dissociation was monitored for 300 s, the flow rate was set to 30 μl/min. The surface was regenerated by injecting 10 mM Glycine pH 2.0 for 60 s, followed by injecting 5 mM NaOH for 60 s at a flow rate of 5 μl/min. Bulk refractive index differences were corrected by subtracting the response obtained from flow cell one (mock surface) as well as by substracting buffer injections (double referencing). The derived curves were fitted to a 1:1 Langmuir binding model using the BIAevaluation software (GE Healthcare). […] All experiments were performed at 37° C. using HBS-N (10 mM HEPES, 150 mM NaCl pH 7.4, 0.05% Surfactant P-20).

[3] = target: T2, FOLR1 CD3 TCB P035.093; test: SPR, Biacore T200, 37 °C; FOLR1 CD3 TCB P035.093 captured on FOLR1-Fc (C1 chip), anti-idiotypic antibody as analyte; n=5; Stdev 198 s
Procedure: as §2

[4] = target: T1, biotinylated anti-human CD3 IgG …; test: SPR; biotinylated anti-CD3 P035.093 IgG on CAP chip, anti-idiotypic IgG at 1 µg/ml; response normalised to anti-human IgG surface and to the unstressed sample; after 14 d at 37 °C pH 7.4
Procedure: Therefore, they were analyzed for thermal stability and remaining target binding after 14 d stress conditions (40° C. at pH6.0 or 37° C. at pH7.4).
as §1

[5] = target: T2, FOLR1 CD3 TCB P035.093; test: SPR, Biacore T200, 37 °C; FOLR1 CD3 TCB P035.093 captured on FOLR1-Fc (C1 chip), anti-idiotypic antibody 1.2-100 nM as analyte; 1:1 Langmuir fit; n=5; Stdev 1.0 nM
Procedure: as §2

[6] = target: T2, FOLR1 CD3 TCB P035.093; test: SPR, Biacore T200, 37 °C; FOLR1 CD3 TCB P035.093 captured on FOLR1-Fc (C1 chip), anti-idiotypic antibody as analyte; n=5; Stdev 156 s
Procedure: as §2

[7] = target: T2, FOLR1 CD3 TCB P035.093; test: SPR, Biacore T200, 37 °C; FOLR1 CD3 TCB P035.093 captured on FOLR1-Fc (C1 chip), anti-idiotypic antibody as analyte; n=5; Stdev 222 s
Procedure: as §2

[8] = target: T2, FOLR1 CD3 TCB P035.093; test: SPR, Biacore T200, 37 °C; FOLR1 CD3 TCB P035.093 captured on FOLR1-Fc (C1 chip), anti-idiotypic antibody as analyte; n=5; Stdev 66 s
Procedure: as §2

[9] = target: T2, FOLR1 CD3 TCB P035.093; test: SPR, Biacore T200, 37 °C; FOLR1 CD3 TCB P035.093 captured on FOLR1-Fc (C1 chip), anti-idiotypic antibody 1.2-100 nM as analyte; 1:1 Langmuir fit; n=5; Stdev 0.6 nM
Procedure: as §2

[10] = target: T3, Human CD3ε stalk-Fc(knob)-Avi/CD3δ stalk-Fc(hole) (human); test: SPR, TCB format, monovalent binding
T3 construct: Heterodimeric Fc fusion; also called human CD3ε/δ; Human CD3 epsilon stalk-Fc(knob)-Avi
Procedure: The experimental setup is schematically depicted in FIG. 3.
The dissociation was monitored for 800 s.
Kinetic constants were derived using the Biacore T200 Evaluation Software (GE Healthcare Life Sciences), to fit rate equations for 1:1 Langmuir binding by numerical integration. The half-life (t_{1/2}) of the interaction was calculated using the formula t_{1/2}=ln 2/koff.

[11] = target: T3, Human CD3ε stalk-Fc(knob)-Avi/CD3δ …; test: SPR, biotinylated human CD3ε/δ on SA chip, TCB at 2 µg/ml; response normalised to anti-huIgG capture and referenced to the unstressed sample; after 2 weeks at pH 7.4/37 °C
Procedure: (§3) In order to assess the effect of the deamidation site removal and its effect on the stability of the antibodies, the optimized anti-CD3 antibodies (in TCB format) were incubated for 14 days at 37° C., pH 7.4 and at 40° C., pH 6 and further analyzed by SPR for their binding capability to human CD3ε/δ. Samples stored at −80° C. pH 6 were used as reference. The reference samples and the samples stressed at 40° C. were in 20 mM His, 140 mM NaCl, pH 6.0, and the samples stressed at 37° C. in PBS, pH 7.4, all at a concentration of 1.0 mg/ml. After the stress period (14 days) samples in PBS were dialyzed back to 20 mM His, 140 mM NaCl, pH 6.0 for further analysis.
(§4) All SPR experiments were performed on a Biacore T200 instrument (GE Healthcare) at 25° C. with HBS-P+ (10 mM HEPES, 150 mM NaCl pH 7.4, 0.05% Surfactant P20) as running and dilution buffer. Biotinylated human CD3ε/δ (see Example 3, SEQ ID NOs 41 and 42) as well as biotinylated anti-huIgG (Capture Select, Thermo Scientific, #7103262100) were immobilized on a Series S Sensor Chip SA (GE Healthcare, #29104992), resulting in surface densities of at least 1000 resonance units (RU). Anti-CD3 antibodies with a concentration of 2 μg/ml were injected for 30 s at a flow rate of 5 μl/min, and dissociation was monitored for 120 s. The surface was regenerated by injecting 10 mM glycine pH 1.5 for 60 s. Bulk refractive index differences were corrected by subtracting blank injections and by subtracting the response obtained from a blank control flow cell. For evaluation, the binding response 5 seconds after injection end was taken. To normalize the binding signal, the CD3 binding was divided by the anti-huIgG response (the signal (RU) obtained upon capture of the CD3 antibody on the immobilized anti-huIgG antibody). The relative binding activity was calculated by referencing each temperature stressed sample to the corresponding, non-stressed sample.

[12] = target: T3, Human CD3ε stalk-Fc(knob)-Avi/CD3δ …; test: SPR, biotinylated human CD3ε/δ on SA chip, TCB at 2 µg/ml; response normalised to anti-huIgG capture and referenced to the unstressed sample; after 2 weeks at pH 6.0/40 °C
Procedure: as §3, §4

T1 sequence (VH, as listed by the source, chain 1 of 2): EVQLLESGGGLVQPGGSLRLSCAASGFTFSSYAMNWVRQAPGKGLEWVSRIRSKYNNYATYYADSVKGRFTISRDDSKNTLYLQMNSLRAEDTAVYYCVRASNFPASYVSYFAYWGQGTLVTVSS
T1 sequence (VL, as listed by the source, chain 2 of 2): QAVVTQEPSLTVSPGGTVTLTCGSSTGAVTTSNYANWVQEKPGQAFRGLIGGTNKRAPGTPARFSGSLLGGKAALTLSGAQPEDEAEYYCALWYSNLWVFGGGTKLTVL

Rel. active concentration [%] [1]: 97%
Kd [2]: 1.1 nM
t1/2 diss [7]: 7.67 min
Rel. active concentration [%] [4]: 94%
B3: Humanized variant H3L2 of anti-idiotypic antibody 4.24.72 (IgG) (antibody, V domains shown)
VH: QVQLVQSGSELKKPGASVKVSCKASGYTVTDYSMNWVRQAPGQGLEWMGWINTETGEPRYTQGFKGRFVFSLDTSVSTAYLQISSLKAEDTAVYYCAREGDYDVFDYWGQGTLVTVSS
VL: DIVMTQSPDSLAVSLGERATINCKSSKSVSTSSYSYMHWYQQKPGQPPKLLIKYVSYLESGVPDRFSGSGSGTDFTLTISSLQAEDVAVYYCQHSREFPYTFGQGTKLEIK
notes: Produced and purified as IgG; also called Mask humanization variant H3L2

fold of binding half-life over CD3orig [10]: ≤ 6 fold
binding activity [%] [11]: 99%
binding activity [%] [12]: 99%
B5: TYRP1 TCB containing optimized anti-CD3 antibody clone P033.078 (bispecific antibody, human IgG1, kappa, L234A L235A)
heavy 1: not shown
heavy 2: QVQLVQSGAEVKKPGASVKVSCKASGFNIKDYFLHWVRQAPGQGLEWMGWINPDNGNTVYAQKFQGRVTMTADTSTSTVYMELSSLRSEDTAVYYCTRRDYTYEKAALDYWGQGTLVTVSSASTKGPSVFPLAPSSKSTSGGTAALGCLVEDYFPEPVTVSWNSGALTSGVHTFPAVLQSSGLYSLSSVVTVPSSSLGTQTYICNVNHKPSNTKVDEKVEPKSCDKTHTCPPCPAPEAAGGPSVFLFPPKPKDTLMISRTPEVTCVVVDVSHEDPEVKFNWYVDGVEVHNAKTKPREEQYNSTYRVVSVLTVLHQDWLNGKEYKCKVSNKALGAPIEKTISKAKGQPREPQVCTLPPSRDELTKNQVSLSCAVKGFYPSDIAVEWESNGQPENNYKTTPPVLDSDGSFFLVSKLTVDKSRWQQGNVFSCSVMHEALHNHYTQKSLSLSP
light 1: DIQMTQSPSSLSASVGDRVTITCRASGNIYNYLAWYQQKPGKVPKLLIYDAKTLADGVPSRFSGSGSGTDFTLTISSLQPEDVATYYCQHFWSLPFTFGQGTKLEIKRTVAAPSVFIFPPSDRKLKSGTASVVCLLNNFYPREAKVQWKVDNALQSGNSQESVTEQDSKDSTYSLSSTLTLSKADYEKHKVYACEVTHQGLSSPVTKSFNRGEC
light 2: EVQLLESGGGLVQPGGSLRLSCAASGFTFESYAMNWVRQAPGKGLEWVSRIRSKYNEYATYYADSVKGRFTISRDDSKNTLYLQMNSLRAEDTAVYYCVRASNFPSSFVSYFGYWGQGTLVTVSSASVAAPSVFIFPPSDEQLKSGTASVVCLLNNFYPREAKVQWKVDNALQSGNSQESVTEQDSKDSTYSLSSTLTLSKADYEKHKVYACEVTHQGLSSPVTKSFNRGEC
notes: 2+1 IgG CrossFab, inverted, with charge modifications; knob-into-hole, P329G L234A L235A; also called CD3opt (P033.078); P033.078 in TCB format

Second part, the binder before the results:

B1: Humanized variant H1L2 of anti-idiotypic antibody 4.24.72 (IgG) (antibody, V domains shown)
VH: B3 VH with Q62D, G63D
VL: B3 VL
notes: Produced and purified as IgG; also called Mask humanization variant H1L2
Rel. active concentration [%] [1]: 97%
Kd [2]: 1.2 nM
t1/2 diss [3]: 6.6 min
Rel. active concentration [%] [4]: 94%

B2: Humanized variant H2L2 of anti-idiotypic antibody 4.24.72 (IgG) (antibody, V domains shown)
VH: B3 VH with Q62D, G63D, K65T
VL: B3 VL
notes: Produced and purified as IgG; also called Mask humanization variant H2L2
Kd [5]: 1.8 nM
t1/2 diss [6]: 6.2 min
Rel. active concentration [%] [1]: 98%
Rel. active concentration [%] [4]: 93%

B4: Humanized variant H1L1 of anti-idiotypic antibody 4.24.72 (IgG) (antibody, V domains shown)
VH: B3 VH with Q62D, G63D
VL: B3 VL with K24R, S25A
notes: Produced and purified as IgG; also called Mask humanization variant H1L1
t1/2 diss [8]: 6.18 min
Rel. active concentration [%] [1]: 99%
Kd [9]: 1.8 nM
Rel. active concentration [%] [4]: 93%
